What all share (experiment): cleavage_in_vitro
Data set [1] has as its system StyI-HF K75A (Salmonella typhi). The following applies: NEB4, relative activity 50%.
Data set [2] deals with StyI-WT (Salmonella typhi). To be noted: NEB4, relative activity 25%.
Data set [3] has as its system T1, BstNI-WT (Bacillus stearothermophilus).
T1 sequence: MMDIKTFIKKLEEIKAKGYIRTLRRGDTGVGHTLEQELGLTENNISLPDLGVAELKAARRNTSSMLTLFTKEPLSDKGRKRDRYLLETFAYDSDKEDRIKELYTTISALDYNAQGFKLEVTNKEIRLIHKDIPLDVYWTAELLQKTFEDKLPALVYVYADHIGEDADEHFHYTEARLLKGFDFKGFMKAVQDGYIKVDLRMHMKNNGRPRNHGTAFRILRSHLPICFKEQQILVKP
To be noted: NEB4, relative activity 50%.

Data set [4] concerns T2, AatII-HF N235A (Acetobacter aceti).
T2 sequence: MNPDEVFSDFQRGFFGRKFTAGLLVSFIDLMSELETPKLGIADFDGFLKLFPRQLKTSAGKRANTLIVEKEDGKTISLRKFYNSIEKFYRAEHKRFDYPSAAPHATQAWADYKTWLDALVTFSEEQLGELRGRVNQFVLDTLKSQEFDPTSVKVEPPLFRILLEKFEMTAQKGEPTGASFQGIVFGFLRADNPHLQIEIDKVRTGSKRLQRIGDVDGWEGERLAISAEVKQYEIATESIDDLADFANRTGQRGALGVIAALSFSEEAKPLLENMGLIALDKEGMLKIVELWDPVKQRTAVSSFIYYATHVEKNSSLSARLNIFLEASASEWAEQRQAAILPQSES
The following applies: NEB4, relative activity 100%; Table 1 lists pXba.

For data set [5], the system named is T3, BsrFI-WT (Bacillus stearothermophilus).
T3 sequence: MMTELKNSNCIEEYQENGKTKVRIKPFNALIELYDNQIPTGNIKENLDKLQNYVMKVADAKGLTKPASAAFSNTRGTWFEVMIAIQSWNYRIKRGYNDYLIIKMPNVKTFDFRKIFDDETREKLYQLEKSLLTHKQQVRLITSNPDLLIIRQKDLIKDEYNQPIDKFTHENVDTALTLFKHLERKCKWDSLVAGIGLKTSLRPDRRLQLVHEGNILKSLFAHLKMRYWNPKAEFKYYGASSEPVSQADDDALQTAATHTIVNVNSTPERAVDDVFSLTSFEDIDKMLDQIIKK
To be noted: NEB4, relative activity 50%.

Data set [6] deals with T4, KasI-HF N251A (Kluyvera ascorbata).
T4 sequence: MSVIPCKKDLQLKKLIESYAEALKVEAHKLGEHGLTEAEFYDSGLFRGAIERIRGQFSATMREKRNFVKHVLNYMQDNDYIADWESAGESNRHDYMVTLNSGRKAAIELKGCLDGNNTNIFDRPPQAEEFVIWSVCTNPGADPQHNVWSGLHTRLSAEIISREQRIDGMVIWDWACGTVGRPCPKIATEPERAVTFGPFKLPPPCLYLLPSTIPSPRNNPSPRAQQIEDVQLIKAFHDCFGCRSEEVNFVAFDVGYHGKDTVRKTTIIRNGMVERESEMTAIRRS
The following applies: NEB4, relative activity 100%.

In data set [7] the test system is T5, AatII-WT (Acetobacter aceti).
T5 sequence: T2 sequence with A235N
The following applies: NEB4, relative activity 50%.

For data set [8], the system named is T6, BstNI-HF G26T (Bacillus stearothermophilus).
T6 sequence: T1 sequence with G26T
To be noted: NEB4, relative activity 100%.

In data set [9] the test system is T7, BsaJI-WT (Bacillus stearothermophilus).
T7 sequence: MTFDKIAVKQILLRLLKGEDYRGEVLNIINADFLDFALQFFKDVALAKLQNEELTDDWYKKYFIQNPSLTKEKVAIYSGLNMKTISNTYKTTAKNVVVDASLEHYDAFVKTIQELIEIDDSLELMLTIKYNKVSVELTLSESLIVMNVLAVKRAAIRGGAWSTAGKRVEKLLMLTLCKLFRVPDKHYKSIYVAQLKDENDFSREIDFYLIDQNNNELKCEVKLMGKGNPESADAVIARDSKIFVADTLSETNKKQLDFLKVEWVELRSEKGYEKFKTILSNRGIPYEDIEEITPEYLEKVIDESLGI
To be noted: NEB4, relative activity 100%.

The test system of data set [10] is BsrDI-WT (BsrDIA + BsrDIB) (Bacillus stearothermophilus). To be noted: NEB4, relative activity 25%.
The test system of data set [11] is T8, BsaJI-HF D200A (Bacillus stearothermophilus).
T8 sequence: T7 sequence with D200A
The following applies: NEB4, relative activity 100%.

Data set [12] has as its system T9, KasI-WT (Kluyvera ascorbata).
T9 sequence: T4 sequence with A251N
To be noted: NEB4, relative activity 100%.

Data set [13] relates to BsrDI-HF (BsrDIA + mutant BsrDIB) Q230A/K363A (BsrDIB) (Bacillus stearothermophilus). The following applies: NEB4, relative activity 100%.
Data set [14] deals with KpnI-HF D16N/D148E (Klebsiella pneumoniae) (UniProt P25237). The following applies: NEB4, relative activity 100%.
The target of data set [15] is KpnI-WT (Klebsiella pneumoniae) (UniProt P25237). To be noted: NEB4, relative activity 50%.

Numbering of substitutions follows the chain as printed.

Take lambda DNA, StyI sites: the values for the activity (fidelity index) in data set [1] and in data set [2] were 4000 and 16, respectively.
As for pBR322 plasmid, the activity (fidelity index) in data set [3] is 4; in data set [4] it was above 1000; in data set [5] it was 16; in data set [6], above 16000; in data set [7], 16; in data set [8], 500. Moreover, the activity (fidelity index) in data set [9] is 64; in [10] it was 0.5; in data set [11] it was above 4000; in [12], 4; in data set [13], above 1000.
As to pXba plasmid, KpnI sites, the activity (fidelity index) in data set [14] is above 1e+06; in data set [15] it was 4.

(Values after US20110151450.)
